Measured values taken from patent US20260116966A1 (KEYMED BIOSCIENCES CHENGDU, published 2026).

T1: Cynomolgus GPRC5D (Cynomolgus, UniProt Q9NZD1 1-343 (human entry))
T1 construct: Full length, on stably transfected cells (HEK293-cyGPRC5D, CHO-cyGPRC5D); also called cyGPRC5D
T1 chain: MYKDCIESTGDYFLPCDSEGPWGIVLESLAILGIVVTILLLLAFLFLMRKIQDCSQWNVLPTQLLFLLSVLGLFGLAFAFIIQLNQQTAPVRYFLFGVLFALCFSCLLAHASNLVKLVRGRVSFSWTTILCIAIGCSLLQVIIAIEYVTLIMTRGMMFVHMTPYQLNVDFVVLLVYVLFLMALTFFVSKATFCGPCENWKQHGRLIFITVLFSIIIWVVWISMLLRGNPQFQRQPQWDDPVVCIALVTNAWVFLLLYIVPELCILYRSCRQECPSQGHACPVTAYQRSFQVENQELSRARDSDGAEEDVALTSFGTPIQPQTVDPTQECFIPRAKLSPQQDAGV


Columns and labels:
human GPRC5D [1] = biological target: T2, human GPRC5D (human, UniProt Q9NZD1 1-345); test: flow cytometry on CHO-hGPRC5D cells
T2 construct: Full length, on stably transfected cells (HEK293-hGPRC5D, CHO-hGPRC5D); Also used here for the endogenous GPRC5D of the GPRC5D+ myeloma lines MM.1R, MM.1S and NCI-H929; also called hGPRC5D; G-protein-coupled receptor family C group 5 member D
T2 sequence (Q9NZD1 whole entry): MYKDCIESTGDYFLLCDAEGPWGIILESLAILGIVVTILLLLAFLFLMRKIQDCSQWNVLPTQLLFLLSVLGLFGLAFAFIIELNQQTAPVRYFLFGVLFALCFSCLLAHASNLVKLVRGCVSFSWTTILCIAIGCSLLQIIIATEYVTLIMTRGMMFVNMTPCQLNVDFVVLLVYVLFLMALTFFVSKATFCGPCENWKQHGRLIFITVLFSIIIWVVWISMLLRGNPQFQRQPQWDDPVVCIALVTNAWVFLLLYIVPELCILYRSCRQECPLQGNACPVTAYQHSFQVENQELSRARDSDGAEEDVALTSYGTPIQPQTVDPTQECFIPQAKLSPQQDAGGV
Protocol: (§1) The binding of the antibodies to human and Cynomolgus GPRC5D stably transfected cells was detected by flow cytometry. […] Then, 100 μl/well of the cell suspension was added to a 96-well U-shaped plate, and centrifuged at 300 g for 5 min. The supernatant was discarded. 100 μL per well of serially diluted antibody was added (initial concentration: 200 nM, 3-fold dilution, 12 gradients), and incubated at 4° C. for 45 min. The secondary antibody 50 μL/well of Alexa Fluro647 labeled goat anti-human IgG Fc (1:300 dilution) was added, incubated on ice for 45 min, and detected by flow cytometry.

Cynomolgus GPRC5D = biological target: T1, Cynomolgus GPRC5D; test: flow cytometry on CHO-cyGPRC5D cells
Protocol: as §1

human GPRC5D [2] = biological target: T2, human GPRC5D; test: cell-based or functional assay
human GPRC5D [3] = biological target: T2, human GPRC5D; test: flow cytometry, HEK293-hGPRC5D cells
Protocol: Cell suspensions of HEK293-hGPRC5D and HEK293-hBCMA stably transfected cells in logarithmic growth phase were adjusted to 5×10⁵ cells/ml. Then, 100 μl/well of the cell suspension was added to a 96-well U-shaped plate, and centrifuged at 300 g for 5 min. The supernatant was discarded. 100 μL per well of serially diluted antibody was added, and incubated at 4° C. for 60 min. The secondary antibody 50 μL/well of Alexa Fluro647 labeled goat anti-human IgG Fc (1:300 dilution) was added, and incubated on ice for 20 min. After washing once, 50 μL/well of PI solution was added, incubated for 5 min, and detected by flow cytometry.

[4] = biological target: T3, CD3 receptor on the surface of Jurkat cells (human, UniProt P07766 23-207); test: flow cytometry on Jurkat cells
T3 construct: whole, on cells; Whole CD3/TCR complex on Jurkat cells; also called Jurkat T
T3 sequence (P07766 23-207): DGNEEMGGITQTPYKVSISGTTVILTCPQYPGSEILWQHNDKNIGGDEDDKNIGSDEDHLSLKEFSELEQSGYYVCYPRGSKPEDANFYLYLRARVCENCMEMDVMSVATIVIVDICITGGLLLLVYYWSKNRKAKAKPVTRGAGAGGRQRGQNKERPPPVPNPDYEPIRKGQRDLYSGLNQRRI
Protocol: Jurkat cells in logarithmic growth phase were added with 200 μg/mL mouse IgG, and allowed to stand in an ice bath for 30 min. The cells were adjusted with 4% calf serum to 5×10⁵ cells/mL. 100 μL per well was added to a 96-well U-shaped plate, and centrifuged at 300 g. The supernatant was removed. 100 μL per well of serially diluted antibody was added, and incubated at 4° C. for 60 min. The secondary antibody 50 μL/well of Alexa Fluro647 labeled goat anti-human IgG Fc (1:300 dilution) was added, and incubated on ice for 20 min. After washing once, 50 μL/well of PI was added, incubated for 5 min, and detected by flow cytometry.

[5] = biological target: T4, biotinylated CD3 recombinant antigen (CD3εγ) (Homo sapiens (Human), UniProt P07766 23-126; P09693 23-116, Biotinylated; site and chemistry not stated. The letters do not carry the biotin.); test: BLI, biotinylated antigen on SA probe, antibody as analyte
T4 construct: also called CD3e antigen; copies: 1 + 1
T4 sequence (P07766 23-126 limits assumed, chain 1 of 2): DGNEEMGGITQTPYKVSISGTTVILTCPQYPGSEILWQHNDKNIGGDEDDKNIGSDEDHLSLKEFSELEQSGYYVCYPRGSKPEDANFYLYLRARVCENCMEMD
T4 sequence (P09693 23-116 limits assumed, chain 2 of 2): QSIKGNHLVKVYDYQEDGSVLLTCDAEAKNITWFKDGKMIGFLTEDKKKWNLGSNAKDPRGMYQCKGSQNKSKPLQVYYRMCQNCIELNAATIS

Binder	binding result (human GPRC5D [1])	EC50 (read off the curve) (Cynomolgus GPRC5D) [nM]	TDCC EC50 (nM), HEK293-hGPRC5D (human GPRC5D [2]) [nM]	EC50 (human GPRC5D [3]) [nM]	binding result [4]	Kd [5] [nM]
anti-GPRC5D chimeric antibody 8D1 (antibody, V domains shown) VH: QVQLQQPGAELVKPGASVKLSCKASGYTFTSYYMYWVKQRPGQGLEWIGGINPSNGGTKYNEKFKSKATLTVDKSSSTAFMQLSSLTSEDSAVYYCTRGSLRSYYYAMDYWGQGTSVTVSS VL: DIQMTQTTSSLSASLGDRVTISCRASQDISNYLNWYQQKPDGTVKLLIYYTSRLHSGVPSRFSGSGSGTDYSLTISNLEQEDLATYFCQQGYSLPYTFGGGTKLEIK	binds	~0.4				
GPRC5D × BCMA × CD3 triTCE-v1 trispecific antibody (other, Trispecific antibody: GPRC5D scFv fused to the N-terminus of the heavy chain of the BCMA arm) light 1: DIVLTQSPASLAVSPGQRATITCRASKSVSTSGYSYMHWYQKKPGQPPKLLIYLASNLESGVPARFSGSGSGTDFTLTINPVEAEDTANYYCQHSRELPWTFGQGTKVEIKRTVAAPSVFIFPPSDEQLKSGTASVVCLLNNFYPREAKVQWKVDNALQSGNSQESVTEQDSKDSTYSLSSTLTLSKADYEKHKVYACEVTHQGLSSPVTKSFNRGEC heavy 1: DIQMTQSPSSLSASVGDRVTITCQASQNVGTNVAWYQQKPGQAPKALIYSASYLNSGVPSRFSGSGSGTDFTFTISSLQPEDIATYFCQQYNSYLLTFGCGTKVEIKGGGGSGGGGSGGGGSQVQLVQSGAEVKKPGSSVKVSCKASGYSFTGYTMNWVRQAPGQCLEWMGLINPYNGGTRYNQKFQGRVTITADESTSTAYMELSSLRSEDTAVYYCARWALRYGMDYWGQGTLVTVSSGGGGSGGGGSGGGGSQVQLVQSGSELKKPGASVKVSCKASGYIFTNFGMNWVREAPGQGLEWMGWINTYTGEQIYADGFTGRFVFSLDTSVSTAYLQISSLKAEDTAVYFCARGEIYYGYDVGFVYWGQGTLVTVSSASTKGPSVFPLAPCSRSTSESTAALGCLVKDYFPEPVTVSWNSGALTSGVHTFPAVLQSSGLYSLSSVVTVPSSSLGTKTYTCNVDHKPSNTKVDKRVESKYGPPCPPCPAPEFEGGPSVFLFPPKPKDTLMISRTPEVTCVVVDVSQEDPEVQFNWYVDGVEVHNAKTKPREEQFNSTYRVVSVLTVLHQDWLNGKEYKCKVSNKGLASSIEKTISKAKGQPREPQVCTLPPSQEEMTKNQVSLSCAVKGFYPSDIAVEWESNGQPENNYKTTPPVLDSDGSFFLVSKLTVDKSRWQEGNVFSCSVMHEALHNHYTQKSLSLSLGK light 2: QAVVTQEPSLTVSPGGTVTLTCRSSTGAVTTSNYANWVQEKPGQAPRGLIGGTNKRAPWTPARFSGSLLGGKAALTITGAQAEDEAEYYCVLWYSNLWVFGGGTKLTVLGQPKAAPSVTLFPPSSEELQANKATLVCLISDFYPGAVTVAWKADSSPVKAGVETTTPSKQSNNKYAASSYLSLTPEQWKSHRSYSCQVTHEGSTVEKTVAPTECS heavy 2: EVQLVESGGGLVQPGGSLRLSCAASGFTFNTYAMNWVRKAPGKGLEWVGRIRSKYNNYATYYADSVKDRFTISRDDSKNSLYLQMNSLKTEDTAVYYCVRHGNFGNSYVSWFAYWGQGTLVTVSSASTKGPSVFPLAPCSRSTSESTAALGCLVKDYFPEPVTVSWNSGALTSGVHTFPAVLQSSGLYSLSSVVTVPSSSLGTKTYTCNVDHKPSNTKVDKRVESKYGPPCPPCPAPEFEGGPSVFLFPPKPKDTLMISRTPEVTCVVVDVSQEDPEVQFNWYVDGVEVHNAKTKPREEQFNSTYRVVSVLTVLHQDWLNGKEYKCKVSNKGLASSIEKTISKAKGQPREPQVYTLPPCQEEMTKNQVSLWCLVKGFYPSDIAVEWESNGQPENNYKTTPPVLDSDGSFFLYSKLTVDKSRWQEGNVFSCSVMHEALHNHYTQKSLSLSLGK			0.074	5.7	binds	
GPRC5D × BCMA × CD3 triTCE-v3 trispecific antibody (other, Trispecific antibody: GPRC5D scFv fused to the N-terminus of the heavy chain of the CD3 arm) light 1: QAVVTQEPSLTVSPGGTVTLTCRSSTGAVTTSNYANWVQEKPGQAPRGLIGGTNKRAPWTPARFSGSLLGGKAALTITGAQAEDEAEYYCVLWYSNLWVFGGGTKLTVLGQPKAAPSVTLFPPSSEELQANKATLVCLISDFYPGAVTVAWKADSSPVKAGVETTTPSKQSNNKYAASSYLSLTPEQWKSHRSYSCQVTHEGSTVEKTVAPTECS heavy 1: DIQMTQSPSSLSASVGDRVTITCQASQNVGTNVAWYQQKPGQAPKALIYSASYLNSGVPSRFSGSGSGTDFTFTISSLQPEDIATYFCQQYNSYLLTFGCGTKVEIKGGGGSGGGGSGGGGSQVQLVQSGAEVKKPGSSVKVSCKASGYSFTGYTMNWVRQAPGQCLEWMGLINPYNGGTRYNQKFQGRVTITADESTSTAYMELSSLRSEDTAVYYCARWALRYGMDYWGQGTLVTVSSGGGGSGGGGSGGGGSEVQLVESGGGLVQPGGSLRLSCAASGFTFNTYAMNWVRKAPGKGLEWVGRIRSKYNNYATYYADSVKDRFTISRDDSKNSLYLQMNSLKTEDTAVYYCVRHGNFGNSYVSWFAYWGQGTLVTVSSASTKGPSVFPLAPCSRSTSESTAALGCLVKDYFPEPVTVSWNSGALTSGVHTFPAVLQSSGLYSLSSVVTVPSSSLGTKTYTCNVDHKPSNTKVDKRVESKYGPPCPPCPAPEFEGGPSVFLFPPKPKDTLMISRTPEVTCVVVDVSQEDPEVQFNWYVDGVEVHNAKTKPREEQFNSTYRVVSVLTVLHQDWLNGKEYKCKVSNKGLASSIEKTISKAKGQPREPQVYTLPPCQEEMTKNQVSLWCLVKGFYPSDIAVEWESNGQPENNYKTTPPVLDSDGSFFLYSKLTVDKSRWQEGNVFSCSVMHEALHNHYTQKSLSLSLGK light 2: DIVLTQSPASLAVSPGQRATITCRASKSVSTSGYSYMHWYQKKPGQPPKLLIYLASNLESGVPARFSGSGSGTDFTLTINPVEAEDTANYYCQHSRELPWTFGQGTKVEIKRTVAAPSVFIFPPSDEQLKSGTASVVCLLNNFYPREAKVQWKVDNALQSGNSQESVTEQDSKDSTYSLSSTLTLSKADYEKHKVYACEVTHQGLSSPVTKSFNRGEC heavy 2: QVQLVQSGSELKKPGASVKVSCKASGYIFTNFGMNWVREAPGQGLEWMGWINTYTGEQIYADGFTGRFVFSLDTSVSTAYLQISSLKAEDTAVYFCARGEIYYGYDVGFVYWGQGTLVTVSS			0.278	2.7		58.2
GPRC5D × BCMA × CD3 triTCE-v4 trispecific antibody (other, Trispecific antibody: GPRC5D scFv fused to the N-terminus of the heavy chain of the CD3 arm) light 1: QAVVTQEPSLTVSPGGTVTLTCRSSTGAVTTSNYANWVQEKPGQAPRGLIGGTNKRAPWTPARFSGSLLGGKAALTITGAQAEDEAEYYCVLWYSNLWVFGGGTKLTVLGQPKAAPSVTLFPPSSEELQANKATLVCLISDFYPGAVTVAWKADSSPVKAGVETTTPSKQSNNKYAASSYLSLTPEQWKSHRSYSCQVTHEGSTVEKTVAPTECS heavy 1: QVQLVQSGAEVKKPGSSVKVSCKASGYSFTGYTMNWVRQAPGQCLEWMGLINPYNGGTRYNQKFQGRVTITADESTSTAYMELSSLRSEDTAVYYCARWALRYGMDYWGQGTLVTVSSGGGGSGGGGSGGGGSDIQMTQSPSSLSASVGDRVTITCQASQNVGTNVAWYQQKPGQAPKALIYSASYLNSGVPSRFSGSGSGTDFTFTISSLQPEDIATYFCQQYNSYLLTFGCGTKVEIKGGGGSGGGGSGGGGSEVQLVESGGGLVQPGGSLRLSCAASGFTFNTYAMNWVRKAPGKGLEWVGRIRSKYNNYATYYADSVKDRFTISRDDSKNSLYLQMNSLKTEDTAVYYCVRHGNFGNSYVSWFAYWGQGTLVTVSSASTKGPSVFPLAPCSRSTSESTAALGCLVKDYFPEPVTVSWNSGALTSGVHTFPAVLQSSGLYSLSSVVTVPSSSLGTKTYTCNVDHKPSNTKVDKRVESKYGPPCPPCPAPEFEGGPSVFLFPPKPKDTLMISRTPEVTCVVVDVSQEDPEVQFNWYVDGVEVHNAKTKPREEQFNSTYRVVSVLTVLHQDWLNGKEYKCKVSNKGLASSIEKTISKAKGQPREPQVYTLPPCQEEMTKNQVSLWCLVKGFYPSDIAVEWESNGQPENNYKTTPPVLDSDGSFFLYSKLTVDKSRWQEGNVFSCSVMHEALHNHYTQKSLSLSLGK light 2: DIVLTQSPASLAVSPGQRATITCRASKSVSTSGYSYMHWYQKKPGQPPKLLIYLASNLESGVPARFSGSGSGTDFTLTINPVEAEDTANYYCQHSRELPWTFGQGTKVEIKRTVAAPSVFIFPPSDEQLKSGTASVVCLLNNFYPREAKVQWKVDNALQSGNSQESVTEQDSKDSTYSLSSTLTLSKADYEKHKVYACEVTHQGLSSPVTKSFNRGEC heavy 2: QVQLVQSGSELKKPGASVKVSCKASGYIFTNFGMNWVREAPGQGLEWMGWINTYTGEQIYADGFTGRFVFSLDTSVSTAYLQISSLKAEDTAVYFCARGEIYYGYDVGFVYWGQGTLVTVSS			0.446	9.9		64.4
